Patent US20200087373A1 (UNIVERSITY OF COPENHAGEN, published 2020)
Numbered stars: 1 amine (or outer) side, 2 acyl side, 3 side chain; on linkers, the order of the positions; unused ones are H or OH. Side chains are listed from the residue outwards. Ends that are not written are not given here. * marks the point of attachment. γGlu = O=C(O)[C@H](CCC(=O)[*:2])N[*:1]; Palmitoyl = CCCCCCCCCCCCCCCC(=O)*; AEEA = NCCOCCOCC(=O)O; GABA = NCCCC(=O)O; βAla = NCCC(=O)O

T1: human GIP receptor (human, UniProt P48546 22-466)
T1 sequence (looked up): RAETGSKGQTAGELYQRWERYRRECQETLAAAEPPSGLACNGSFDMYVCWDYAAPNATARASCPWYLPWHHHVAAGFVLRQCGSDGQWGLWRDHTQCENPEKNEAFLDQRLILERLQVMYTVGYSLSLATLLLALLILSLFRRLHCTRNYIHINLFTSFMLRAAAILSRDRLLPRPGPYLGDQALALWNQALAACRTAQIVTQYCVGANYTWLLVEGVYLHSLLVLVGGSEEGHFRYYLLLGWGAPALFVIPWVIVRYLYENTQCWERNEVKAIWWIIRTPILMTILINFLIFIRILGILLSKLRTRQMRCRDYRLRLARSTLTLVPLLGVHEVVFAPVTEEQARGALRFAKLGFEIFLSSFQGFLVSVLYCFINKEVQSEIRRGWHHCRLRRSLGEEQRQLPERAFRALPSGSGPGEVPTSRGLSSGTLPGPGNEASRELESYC


Assays:
human GIP receptor [1] = biological target: T1, human GIP receptor; assay: cell-based or functional assay
human GIP receptor [2] = biological target: T1, human GIP receptor; assay: 125I-hGIP(1-42) competition binding, COS-7 cells expressing human GIPR
Experimental: (§1) After incubation, the cells were washed twice in ice-cold binding buffer (+/−2% HSA) and lysed using 200 mM NaOH with 1% SDS for 30 min. Nonspecific binding was determined as the binding of radioactive ligand to untransfected cells.

human GIP receptor [3] = biological target: T1, human GIP receptor; assay: cell-based or functional assay; remark: listed apart in the source
human GIP receptor [4] = biological target: T1, human GIP receptor; assay: 125I-hGIP competition binding on hGIPR COS-7 cells; fold in affinity, paired, reference taken as GIP(3-30)NH2
Experimental: as §1

human GIP receptor [5] = biological target: T1, human GIP receptor; assay: 125I-hGIP(1-42) competition binding, COS-7 cells expressing human GIPR, 2% HSA
Experimental: as §1

human GIP receptor [6] = biological target: T1, human GIP receptor; assay: 125I-hGIP(1-42) competition binding, COS-7 cells expressing human GIPR, 0.1% casein (no HSA)
Experimental: as §1

Binder	cAMP accumulation Fold change (from GIP(3-30)NH2) (human GIP receptor [1]) [fold]	cAMP accumulation IC50 (human GIP receptor [1]) [nM]	cAMP accumulation logIC50 (human GIP receptor [1])	IC50 (human GIP receptor [2]) [nM]	cAMP - antagonisme fold (paired) (human GIP receptor [3]) [fold]	fold (paired) (human GIP receptor [4]) [fold]	cAMP - antagonisme IC50 (human GIP receptor [3]) [nM]	IC50 (human GIP receptor [5]) [nM]	IC50 (human GIP receptor [6]) [nM]
EGTFISDYSIAMDKIK([GABA-Palmitoyl])QQDFVNWLLAQK-NH2 (N-terminus assumed; SMILES CCCCCCCCCCCCCCCC(=O)NCCCC(=O)NCCCC[C@H](NC(=O)[C@@H](NC(=O)[C@H](CCCCN)NC(=O)[C@H](CC(=O)O)NC(=O)[C@H](CCSC)NC(=O)[C@H](C)NC(=O)[C@@H](NC(=O)[C@H](CO)NC(=O)[C@H](Cc1ccc(O)cc1)NC(=O)[C@H](CC(=O)O)NC(=O)[C@H](CO)NC(=O)[C@@H](NC(=O)[C@H](Cc1ccccc1)NC(=O)[C@@H](NC(=O)CNC(=O)[C@@H](N)CCC(=O)O)[C@@H](C)O)[C@@H](C)CC)[C@@H](C)CC)[C@@H](C)CC)C(=O)N[C@@H](CCC(N)=O)C(=O)N[C@@H](CCC(N)=O)C(=O)N[C@@H](CC(=O)O)C(=O)N[C@@H](Cc1ccccc1)C(=O)N[C@H](C(=O)N[C@@H](CC(N)=O)C(=O)N[C@@H](Cc1c[nH]c2ccccc12)C(=O)N[C@@H](CC(C)C)C(=O)N[C@@H](CC(C)C)C(=O)N[C@@H](C)C(=O)N[C@@H](CCC(N)=O)C(=O)N[C@@H](CCCCN)C(N)=O)C(C)C) [AT165 [hGIP(3-30)NH2[H18K]-C16/18+y-aminobuturic acid]]	2.9	22.4	-7.65 log(M)						
EGTFISDYSIAMDKIK([γGlu-AEEA-Palmitoyl])QQDFVNWLLAQK-NH2 (also: order of γGlu and AEEAc linker pieces on Lys not given here) [AT167 [hGIP(3-30)NH2[H18K]-C16/18+y-glutamic acid+8-amino-3,6-dioxaoctanoic acid]]	14.8	4.4	-8.36 log(M)						
EGTFISDYSIAMDKIHQQDFVNWLLAQK (pyroglutamic acid (pGlu) in place of Glu at position 3 in GIP numbering (residue 1 of the entry); C16 (palmitoyl) fatty acid on Lys at position 16 (residue 14 of the entry); C-terminal amide taken from the series hGIP(3-30)NH2) [AT109 (E3pGlu, C16 at position 16)]				1580	8	74			
EGWFISDYSIAMEK(Palmitoyl)IAQQDFVNWLLAQK-NH2 (N-terminus assumed; SMILES CCCCCCCCCCCCCCCC(=O)NCCCC[C@H](NC(=O)[C@H](CCC(=O)O)NC(=O)[C@H](CCSC)NC(=O)[C@H](C)NC(=O)[C@@H](NC(=O)[C@H](CO)NC(=O)[C@H](Cc1ccc(O)cc1)NC(=O)[C@H](CC(=O)O)NC(=O)[C@H](CO)NC(=O)[C@@H](NC(=O)[C@H](Cc1ccccc1)NC(=O)[C@H](Cc1c[nH]c2ccccc12)NC(=O)CNC(=O)[C@@H](N)CCC(=O)O)[C@@H](C)CC)[C@@H](C)CC)C(=O)N[C@H](C(=O)N[C@@H](C)C(=O)N[C@@H](CCC(N)=O)C(=O)N[C@@H](CCC(N)=O)C(=O)N[C@@H](CC(=O)O)C(=O)N[C@@H](Cc1ccccc1)C(=O)N[C@H](C(=O)N[C@@H](CC(N)=O)C(=O)N[C@@H](Cc1c[nH]c2ccccc12)C(=O)N[C@@H](CC(C)C)C(=O)N[C@@H](CC(C)C)C(=O)N[C@@H](C)C(=O)N[C@@H](CCC(N)=O)C(=O)N[C@@H](CCCCN)C(N)=O)C(C)C)[C@@H](C)CC) [AT107 [hGIP(3-30)NH2[T5W; D15E; H18A]-C16/16]]				5220	3.1	186	76.9		
EGTFISDYSIAMEK(Palmitoyl)IAQQDFVNWLLAQK-NH2 (N-terminus assumed; SMILES CCCCCCCCCCCCCCCC(=O)NCCCC[C@H](NC(=O)[C@H](CCC(=O)O)NC(=O)[C@H](CCSC)NC(=O)[C@H](C)NC(=O)[C@@H](NC(=O)[C@H](CO)NC(=O)[C@H](Cc1ccc(O)cc1)NC(=O)[C@H](CC(=O)O)NC(=O)[C@H](CO)NC(=O)[C@@H](NC(=O)[C@H](Cc1ccccc1)NC(=O)[C@@H](NC(=O)CNC(=O)[C@@H](N)CCC(=O)O)[C@@H](C)O)[C@@H](C)CC)[C@@H](C)CC)C(=O)N[C@H](C(=O)N[C@@H](C)C(=O)N[C@@H](CCC(N)=O)C(=O)N[C@@H](CCC(N)=O)C(=O)N[C@@H](CC(=O)O)C(=O)N[C@@H](Cc1ccccc1)C(=O)N[C@H](C(=O)N[C@@H](CC(N)=O)C(=O)N[C@@H](Cc1c[nH]c2ccccc12)C(=O)N[C@@H](CC(C)C)C(=O)N[C@@H](CC(C)C)C(=O)N[C@@H](C)C(=O)N[C@@H](CCC(N)=O)C(=O)N[C@@H](CCCCN)C(N)=O)C(C)C)[C@@H](C)CC) [AT131 [hGIP(3-30)NH2[D15E; H18A]-C16/16]]				6510	1.1	49	65		
EGTFISDYSIAMDKIK(Palmitoyl)QQDFVNWLLAQK-NH2 (N-terminus assumed; SMILES CCCCCCCCCCCCCCCC(=O)NCCCC[C@H](NC(=O)[C@@H](NC(=O)[C@H](CCCCN)NC(=O)[C@H](CC(=O)O)NC(=O)[C@H](CCSC)NC(=O)[C@H](C)NC(=O)[C@@H](NC(=O)[C@H](CO)NC(=O)[C@H](Cc1ccc(O)cc1)NC(=O)[C@H](CC(=O)O)NC(=O)[C@H](CO)NC(=O)[C@@H](NC(=O)[C@H](Cc1ccccc1)NC(=O)[C@@H](NC(=O)CNC(=O)[C@@H](N)CCC(=O)O)[C@@H](C)O)[C@@H](C)CC)[C@@H](C)CC)[C@@H](C)CC)C(=O)N[C@@H](CCC(N)=O)C(=O)N[C@@H](CCC(N)=O)C(=O)N[C@@H](CC(=O)O)C(=O)N[C@@H](Cc1ccccc1)C(=O)N[C@H](C(=O)N[C@@H](CC(N)=O)C(=O)N[C@@H](Cc1c[nH]c2ccccc12)C(=O)N[C@@H](CC(C)C)C(=O)N[C@@H](CC(C)C)C(=O)N[C@@H](C)C(=O)N[C@@H](CCC(N)=O)C(=O)N[C@@H](CCCCN)C(N)=O)C(C)C) [AT117 [hGIP(3-30)NH2[H18K]-C16/18]]				292			19.4	1730	110
EGTFISDYSIAMDKIK([βAla-Palmitoyl])QQDFVNWLLAQK-NH2 (N-terminus assumed; SMILES CCCCCCCCCCCCCCCC(=O)NCCC(=O)NCCCC[C@H](NC(=O)[C@@H](NC(=O)[C@H](CCCCN)NC(=O)[C@H](CC(=O)O)NC(=O)[C@H](CCSC)NC(=O)[C@H](C)NC(=O)[C@@H](NC(=O)[C@H](CO)NC(=O)[C@H](Cc1ccc(O)cc1)NC(=O)[C@H](CC(=O)O)NC(=O)[C@H](CO)NC(=O)[C@@H](NC(=O)[C@H](Cc1ccccc1)NC(=O)[C@@H](NC(=O)CNC(=O)[C@@H](N)CCC(=O)O)[C@@H](C)O)[C@@H](C)CC)[C@@H](C)CC)[C@@H](C)CC)C(=O)N[C@@H](CCC(N)=O)C(=O)N[C@@H](CCC(N)=O)C(=O)N[C@@H](CC(=O)O)C(=O)N[C@@H](Cc1ccccc1)C(=O)N[C@H](C(=O)N[C@@H](CC(N)=O)C(=O)N[C@@H](Cc1c[nH]c2ccccc12)C(=O)N[C@@H](CC(C)C)C(=O)N[C@@H](CC(C)C)C(=O)N[C@@H](C)C(=O)N[C@@H](CCC(N)=O)C(=O)N[C@@H](CCCCN)C(N)=O)C(C)C) [AT166 [hGIP(3-30)NH2[H18K]-C16/18+β-alanine]]	2.9	22.9	-7.64 log(M)						
EGTFISDYSIAMDKIK([γGlu-Palmitoyl])QQDFVNWLLAQK-NH2 (N-terminus assumed; SMILES CCCCCCCCCCCCCCCC(=O)N[C@@H](CCC(=O)NCCCC[C@H](NC(=O)[C@@H](NC(=O)[C@H](CCCCN)NC(=O)[C@H](CC(=O)O)NC(=O)[C@H](CCSC)NC(=O)[C@H](C)NC(=O)[C@@H](NC(=O)[C@H](CO)NC(=O)[C@H](Cc1ccc(O)cc1)NC(=O)[C@H](CC(=O)O)NC(=O)[C@H](CO)NC(=O)[C@@H](NC(=O)[C@H](Cc1ccccc1)NC(=O)[C@@H](NC(=O)CNC(=O)[C@@H](N)CCC(=O)O)[C@@H](C)O)[C@@H](C)CC)[C@@H](C)CC)[C@@H](C)CC)C(=O)N[C@@H](CCC(N)=O)C(=O)N[C@@H](CCC(N)=O)C(=O)N[C@@H](CC(=O)O)C(=O)N[C@@H](Cc1ccccc1)C(=O)N[C@H](C(=O)N[C@@H](CC(N)=O)C(=O)N[C@@H](Cc1c[nH]c2ccccc12)C(=O)N[C@@H](CC(C)C)C(=O)N[C@@H](CC(C)C)C(=O)N[C@@H](C)C(=O)N[C@@H](CCC(N)=O)C(=O)N[C@@H](CCCCN)C(N)=O)C(C)C)C(=O)O) [AT164 [hGIP(3-30)NH2[H18K]-C16/18+y-glutamic acid]]	6.3	10.2	-7.99 log(M)						
EGTFISDYSIAMDKIHQQDFVNWLLAQK-NH2 [hGIP(3-30)NH2]		64.6	-7.19 log(M)						
